Results on 38 sequences are retold here after the supplement of paper PMC9732359.

The nature of this data set: protein stability index of a GFP-peptide fusion (yeast GPS) (PSI 1-4); higher = more stable; sorted into four equal gates, so the index is relative within each strain. The essentials:
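For each peptide, the protein stability index sums the read frequency in every gate after multiplying it by the gate number. Read frequencies came from plasmids that were PCR-amplified from each gate and Illumina-sequenced, with reads assigned to strains by barcodes. The gates were four equal bins of GFP/Cherry fluorescence ratio applied to mid-log yeast in leucine-free medium carrying a pooled library of tiled 17-residue yeast protein peptides fused downstream of GFP on a Cherry-expressing plasmid.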

± gives the uncertainty stated by the source.

For the sequence GWKPYYKLFIWLVVPTI [YML031W/NDC1], the protein stability index reads like this: (doa10∆) 1.28 ± 0.049; (pdr5∆) 1.2 ± 0.044; (san1∆) 1.19 ± 0.09; (ubr1∆) 1.16 ± 0.044.

In turn, APPQRPRFNRDNKVSPA [RPS26B] came in with a protein stability index (doa10∆) of 2.79 ± 0.1, a protein stability index (pdr5∆) of 2.45 ± 0.11 and a protein stability index (san1∆) of 3.09 ± 0.14.

As for PAKVAEEGINKFKKEKF [SRP54], the protein stability index reads like this: (doa10∆) 3.2 ± 0.066; (pdr5∆) 3.44 ± 0.059; (san1∆) 3.38 ± 0.046; (ubr1∆) 3.23 ± 0.057.

Consider LNDRFQTLSSHLEALQP [PGD1], for which the protein stability index was determined as 2.64 ± 0.04 (doa10∆), 2.69 ± 0.042 (pdr5∆), 2.63 ± 0.04 (san1∆) and 2.54 ± 0.032 (ubr1∆).

For the sequence SLYPPPPPYVKFFTQSN [MED7], the protein stability index reads like this: (doa10∆) 1.97 ± 0.043; (pdr5∆) 2.17 ± 0.048; (san1∆) 2.16 ± 0.072; (ubr1∆) 2.35 ± 0.031.

With YMDSMNEKVAVMRNTYN [GAL11], the protein stability index runs as follows: (doa10∆) 2.72 ± 0.13; (pdr5∆) 3.24 ± 0.062; (san1∆) 2.35 ± 0.069; (ubr1∆) 2.34 ± 0.098.

For the sequence IHLLHDDRGPVLESIVA [BRR2], the protein stability index runs as follows: (doa10∆) 2.48 ± 0.089; (pdr5∆) 1.78 ± 0.06; (san1∆) 3.24 ± 0.05; (ubr1∆) 2.63 ± 0.11.

In the case of FNFVLLGQIGACHVEVP [COB], the protein stability index by setting is: (doa10∆) 1.43 ± 0.085; (pdr5∆) 1.88 ± 0.071; (san1∆) 1.2 ± 0.17; (ubr1∆) 1.6 ± 0.089.

With ESHIDSRNNTLNVTPSK [SIR4], the protein stability index runs as follows: (doa10∆) 2.77 ± 0.045; (pdr5∆) 2.62 ± 0.038; (san1∆) 2.75 ± 0.046; (ubr1∆) 2.63 ± 0.033.

Consider MGENEKPDVTYADVGGL [RPT3], for which the protein stability index was found to be 3.07 ± 0.18 (doa10∆), 3.41 ± 0.074 (pdr5∆), 3.28 ± 0.1 (san1∆) and 3.31 ± 0.079 (ubr1∆).

For IATGCKDGRIRIFKITE [YGL100W/SEH1], the protein stability index amounted to 2.22 ± 0.069 (doa10∆), 2.47 ± 0.066 (pdr5∆), 2.21 ± 0.094 (san1∆) and 2.43 ± 0.046 (ubr1∆).

VLKFAAHTGATPIAGRF [RPS0A]: the protein stability index was determined as 2.23 ± 0.21 (doa10∆), 2.85 ± 0.11 (pdr5∆), 2.81 ± 0.13 (san1∆) and 2.1 ± 0.12 (ubr1∆).

As to SALWSSRKGIAFGLGAI [ECM29], the protein stability index runs as follows: (doa10∆) 2.59 ± 0.13; (pdr5∆) 2.89 ± 0.094; (san1∆) 2.2 ± 0.13; (ubr1∆) 2.55 ± 0.089.

Sequence FHILLKLILEWVAPQES [ECM29] had a protein stability index (pdr5∆) of 2.08 ± 0.27, a protein stability index (san1∆) of 1.53 ± 0.17 and a protein stability index (ubr1∆) of 1.77 ± 0.14.

Sequence GCGTVKRFNIGADPNYR [RPR2] came in with a protein stability index (doa10∆) of 3.15 ± 0.12, a protein stability index (pdr5∆) of 3.36 ± 0.092, a protein stability index (san1∆) of 3.33 ± 0.09 and a protein stability index (ubr1∆) of 3.46 ± 0.068.

DIRDSSCQGNVIYRNSL [YMR129W/POM152]: the protein stability index runs as follows: (doa10∆) 3.5 ± 0.22; (pdr5∆) 3.21 ± 0.087; (san1∆) 3.38 ± 0.06; (ubr1∆) 3.37 ± 0.084.

In the case of RKCQFRTPDSISVNSSS [POP1], the protein stability index (doa10∆) amounted to 2.44 ± 0.074, the protein stability index (pdr5∆) is 2.52 ± 0.073, the protein stability index (san1∆) is 2.64 ± 0.056 and the protein stability index (ubr1∆) was found to be 2.37 ± 0.062.

Take VRNFKEAAKLLVDSLAT [RPN7]: for the setting “doa10∆”, the protein stability index was determined as 2.23 ± 0.18.

With IRAIRKVISEILTKEVQ [RPS1A], the protein stability index runs as follows: (doa10∆) 1.714 ± 0.013; (pdr5∆) 1.89 ± 0.012; (san1∆) 1.83 ± 0.021; (ubr1∆) 1.966 ± 0.011.

IAAKTHILRISFLDRKR [SIN4] returned a protein stability index (doa10∆) of 2.53 ± 0.1, a protein stability index (pdr5∆) of 2.65 ± 0.09, a protein stability index (san1∆) of 1.84 ± 0.073 and a protein stability index (ubr1∆) of 2.42 ± 0.049.

For KDLEIRKLEISSRFKHR [GAL11], the protein stability index is, setting by setting: (doa10∆) 2.87 ± 0.099; (pdr5∆) 2.76 ± 0.081; (san1∆) 3.16 ± 0.13; (ubr1∆) 2.81 ± 0.053.

Turning to DHAIVTSPTMPDYYVSI [RPT2], the protein stability index is 2.62 ± 0.11 (doa10∆), 2.67 ± 0.17 (pdr5∆), 2.58 ± 0.063 (san1∆) and 2.86 ± 0.12 (ubr1∆).

HSLSQAIKWDGSSGGVI [PRE3] had a protein stability index (doa10∆) of 3.69 ± 0.28, a protein stability index (pdr5∆) of 3.27 ± 0.21 and a protein stability index (san1∆) of 2.67 ± 0.21.

For LTTFANQVMMDRKIQGW [ARP7], the protein stability index (doa10∆) was found to be 2.69 ± 0.081, the protein stability index (pdr5∆) was 2.62 ± 0.059, the protein stability index (san1∆) worked out at 2.45 ± 0.076 and the protein stability index (ubr1∆) worked out at 2.65 ± 0.049.

Turning to LTGEWSTKFDYPPMPFD [FAS1], the protein stability index runs as follows: (doa10∆) 2.85 ± 0.056; (pdr5∆) 2.96 ± 0.062; (san1∆) 2.85 ± 0.048; (ubr1∆) 2.94 ± 0.037.

As for AGRKFKSRRCDDMLYYI [POP4], the protein stability index is, setting by setting: (doa10∆) 2.96 ± 0.094; (pdr5∆) 3.06 ± 0.094; (san1∆) 3.21 ± 0.084; (ubr1∆) 3.04 ± 0.068.

NQVGTDELILPLPSHAL [YDL116W/NUP84] had a protein stability index (doa10∆) of 3.09 ± 0.057, a protein stability index (pdr5∆) of 3.09 ± 0.045, a protein stability index (san1∆) of 2.83 ± 0.052 and a protein stability index (ubr1∆) of 3.06 ± 0.04.

The sequence KRHRSSYYDNDLDETTQ [YML031W/NDC1] yielded a protein stability index (doa10∆) of 2.8 ± 0.065, a protein stability index (pdr5∆) of 2.76 ± 0.071, a protein stability index (san1∆) of 2.68 ± 0.053 and a protein stability index (ubr1∆) of 2.71 ± 0.071.

On to RSDREYPLLIRMSYGSH [SRP14], for which the protein stability index by setting is: (doa10∆) 2.51 ± 0.077; (pdr5∆) 2.3 ± 0.077; (san1∆) 1.92 ± 0.077; (ubr1∆) 2.23 ± 0.061.

On to QTAVTCESCSTILCTPT [RPS27A], for which the protein stability index amounted to 1.93 ± 0.04 (doa10∆), 2.05 ± 0.044 (pdr5∆), 1.91 ± 0.056 (san1∆) and 1.82 ± 0.04 (ubr1∆).

Take QQQIIKIRITLTSTKVK [RPS20]: the protein stability index is, setting by setting: (doa10∆) 1.91 ± 0.056; (pdr5∆) 1.84 ± 0.048; (san1∆) 1.59 ± 0.1; (ubr1∆) 2.71 ± 0.043.

Take LSHYIRQCFQDNCCDFK [MED1]: the protein stability index is 2.78 ± 0.045 (doa10∆), 2.75 ± 0.052 (pdr5∆), 2.94 ± 0.05 (san1∆) and 2.83 ± 0.032 (ubr1∆).

For MSAKAEKKPASKAPAEK [HTB1], the protein stability index runs as follows: (doa10∆) 3.51 ± 0.13; (pdr5∆) 3.41 ± 0.12; (san1∆) 3.16 ± 0.12; (ubr1∆) 2.89 ± 0.098.

For the sequence ALEFLNTTLQDNVSFIE [REC8], the protein stability index is, setting by setting: (doa10∆) 2.95 ± 0.072; (pdr5∆) 3.27 ± 0.12; (san1∆) 3.05 ± 0.11; (ubr1∆) 2.87 ± 0.072.

For GESIMSEEPTDFGFDLD [MCD1], the protein stability index by setting is: (doa10∆) 3.1 ± 0.13; (pdr5∆) 3.25 ± 0.17; (san1∆) 3.34 ± 0.072; (ubr1∆) 3.24 ± 0.095.

On to TLIKKKQDEKKSSELEL [SMC2], for which the protein stability index (doa10∆) amounted to 3.24 ± 0.076, the protein stability index (pdr5∆) was determined as 3.37 ± 0.071, the protein stability index (san1∆) worked out at 3.29 ± 0.047 and the protein stability index (ubr1∆) amounted to 3.05 ± 0.046.

Take STLTLSDSEDSDAKEQH [ESC2]: the protein stability index (ubr1∆) came out at 1.06 ± 0.13.

As to TSRTIVRNVKGPVREND [RPS28A], the protein stability index came out at 3.4 ± 0.11 (doa10∆), 3.16 ± 0.1 (pdr5∆), 3.59 ± 0.11 (san1∆) and 3.27 ± 0.086 (ubr1∆).
